Key:
[1] = target: T1, Cynomolgus T cell receptor on cynomolgus primary T cells (cynomolgus monkey); test: cell-based or functional assay
[2] = target: T2, Cynomolgus TCR(AEA41865/AEA41866)-zipper protein (cynomolgus monkey); test: SPR, ProteOn XPR36, 25 C, immobilised TCR-zipper
T2 construct: also called cyTCR-zipper protein; cynoTCR zipper
Excerpt: HuTCR-zipper or cyTCR-zipper protein was immobilized on a GLC sensor chip (between 100-200 RU) via amine coupling chemistry, using EDC/NHS for activation of the carboxyl groups on the chip surface (running buffer: HBS-EP+, pH7.4). […] Processed sensorgrams were fitted with the Langmuir model (1:1 interaction) using ProteOn Manager 3.1.0 (Version 3.1.0.6) software.
T2 TCR alpha: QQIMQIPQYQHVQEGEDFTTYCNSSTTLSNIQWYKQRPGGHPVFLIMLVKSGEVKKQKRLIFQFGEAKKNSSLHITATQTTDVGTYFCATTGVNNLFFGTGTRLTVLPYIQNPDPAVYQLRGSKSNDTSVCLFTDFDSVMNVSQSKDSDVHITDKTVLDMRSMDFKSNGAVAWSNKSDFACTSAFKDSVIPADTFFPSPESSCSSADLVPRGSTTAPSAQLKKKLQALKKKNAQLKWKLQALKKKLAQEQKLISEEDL
T2 TCR beta: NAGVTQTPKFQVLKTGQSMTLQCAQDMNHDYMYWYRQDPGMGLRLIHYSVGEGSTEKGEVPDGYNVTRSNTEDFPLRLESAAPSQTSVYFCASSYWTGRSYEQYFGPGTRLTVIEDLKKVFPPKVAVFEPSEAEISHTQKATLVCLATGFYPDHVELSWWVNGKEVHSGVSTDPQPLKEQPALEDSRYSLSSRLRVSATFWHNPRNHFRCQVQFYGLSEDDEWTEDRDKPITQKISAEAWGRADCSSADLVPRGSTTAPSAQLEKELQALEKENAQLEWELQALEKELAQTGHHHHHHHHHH

[3] = target: T1, Cynomolgus T cell receptor on …; test: cell-based or functional assay; remark: listed apart in the source
[4] = target: T3, Human T cell receptor on human primary T cells (human, UniProt P01848 1-140; P01850 1-176); test: cell-based or functional assay
T3 TCR alpha (looked up): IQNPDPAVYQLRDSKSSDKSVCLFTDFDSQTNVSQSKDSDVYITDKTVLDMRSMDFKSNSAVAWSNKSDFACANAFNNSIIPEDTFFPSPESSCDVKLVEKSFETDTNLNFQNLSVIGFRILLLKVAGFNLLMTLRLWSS
T3 TCR beta (looked up): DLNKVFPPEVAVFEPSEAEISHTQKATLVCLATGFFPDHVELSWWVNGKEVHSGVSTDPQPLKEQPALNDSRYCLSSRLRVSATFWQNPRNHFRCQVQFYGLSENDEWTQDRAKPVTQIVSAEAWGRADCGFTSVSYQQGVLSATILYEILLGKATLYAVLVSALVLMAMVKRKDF

[5] = target: T1, Cynomolgus T cell receptor on …; test: cell-based or functional assay; remark: listed apart in the source
[6] = target: T3, Human T cell receptor on human primary …; test: cell-based or functional assay
[7] = target: T1, Cynomolgus T cell receptor on …; test: cell-based or functional assay; remark: listed apart in the source
[8] = target: T3, Human T cell receptor on human primary …; test: cell-based or functional assay
[9] = target: T3, Human T cell receptor on human primary …; test: cell-based or functional assay
Throughout, for % Lysis, T cell mediated MOLM-13 cell killing, cynomolgus primary T cells, E:T 10:1: test concentration or dose not given here.
Throughout, for % Lysis, T cell mediated MOLM-13 cell killing, human primary T cells, E:T 10:1: test concentration or dose not given here.

B1: T017000633 (bispecific antibody)
chain: DVQLVESGGGVVQPGGSLRLSCVASGYVHKINFYGWYRQAPGKEREKVAHISIGDQTDYADSAKGRFTISRDESKNTVYLQMNSLRPEDTALYYCRALSRIWPYDYWGQGTLVTVSSGGGGSGGGGSGGGGSGGGGSGGGGSGGGGSGGGGSEVQLVESGGGLVQAGGSLRLSCAASGITSKINDMGWYRQTPGNYREWVASITATGTTNYRDSVKGRFTISRDNAKSTVYLQMNSLKPEDTTVYYCNTFPPISNFWGQGTLVTVSSA
% Lysis, T cell mediated MOLM-13 cell killing, cynomolgus primary T cells, E:T 10:1 [1]: 35% | EC50 (M), T cell mediated MOLM-13 cell killing, cynomolgus primary T cells, E:T 10:1 [1]: 5.2e-11 M | Kd [2]: 17 nM | % lysis, MOLM-13, Cynomolgus T cell mediated killing [3]: 44% | % lysis, MOLM-13, Human T cell mediated killing [4]: 26% | EC50 (M), MOLM-13, Human T cell mediated killing [4]: 1.8e-10 M | % lysis, KG-1a, Cynomolgus T cell mediated killing [5]: 64% | EC50 (M), KG-1a, Cynomolgus T cell mediated killing [5]: 3.4e-10 M | % lysis, KG-1a, Human T cell mediated killing [6]: 56% | EC50 (M), KG-1a, Human T cell mediated killing [6]: 6.8e-10 M | IC50 (M), xCELLigence CHO Flp-In huCD123 cell killing, Cynomolgus T cell mediated killing [7]: 5.1e-12 M | IC50 (M), xCELLigence CHO Flp-In huCD123 cell killing, Human T cell mediated killing [8]: 9.1e-12 M | % Lysis, T cell mediated MOLM-13 cell killing, human primary T cells, E:T 10:1 [9]: 31% | EC50 (M), T cell mediated MOLM-13 cell killing, human primary T cells, E:T 10:1 [9]: 1.2e-10 M

B2: T017000131 (bispecific antibody)
chain: DVQLVESGGGLVQAGGSLRLSCAASGITSKINDMGWYRQTPGNYREWVASITATGTTNYRDSVKGRFTISRDNAKSTVYLQMNSLKPEDTTVYYCNTFPPISNFWGQGTLVTVSSGGGGSGGGGSGGGGSGGGGSGGGGSGGGGSGGGGSEVQLVESGGGLVQPGGSLRLSCVASGDVHKINFLGWYRQAPGKEREKVAHISIGDQTDYADSAKGRFTISRDESKNMVYLQMNSLKPEDTAVYFCRAFSRIYPYDYWGQGTLVTVSSA
notes: also called A0110056A10(E1D)-35GS-T0170056G05-A
% Lysis, T cell mediated MOLM-13 cell killing, cynomolgus primary T cells, E:T 10:1 [1]: 14% | EC50 (M), T cell mediated MOLM-13 cell killing, cynomolgus primary T cells, E:T 10:1 [1]: 9e-10 M | Kd [2]: 1600 nM | % lysis, MOLM-13, Cynomolgus T cell mediated killing [3]: 14% | EC50 (M), MOLM-13, Cynomolgus T cell mediated killing [3]: 8.9e-10 M | % lysis, MOLM-13, Human T cell mediated killing [4]: 20% | % lysis, KG-1a, Cynomolgus T cell mediated killing [5]: 14% | EC50 (M), KG-1a, Cynomolgus T cell mediated killing [5]: 1.6e-09 M | % lysis, KG-1a, Human T cell mediated killing [6]: 29% | EC50 (M), KG-1a, Human T cell mediated killing [6]: 2.4e-09 M | IC50 (M), xCELLigence CHO Flp-In huCD123 cell killing, Cynomolgus T cell mediated killing [7]: 8.1e-11 M | IC50 (M), xCELLigence CHO Flp-In huCD123 cell killing, Human T cell mediated killing [8]: 3.4e-11 M | % Lysis, T cell mediated MOLM-13 cell killing, human primary T cells, E:T 10:1 [9]: 20% | EC50 (M), T cell mediated MOLM-13 cell killing, human primary T cells, E:T 10:1 [9]: 1.3e-09 M

B3: T017000634 (bispecific antibody)
chain: DVQLVESGGGLVQAGGSLRLSCAASGITSKINDMGWYRQTPGNYREWVASITATGTTNYRDSVKGRFTISRDNAKSTVYLQMNSLKPEDTTVYYCNTFPPISNFWGQGTLVTVSSGGGGSGGGGSGGGGSGGGGSGGGGSGGGGSGGGGSEVQLVESGGGVVQPGGSLRLSCVASGYVHKINFYGWYRQAPGKEREKVAHISIGDQTDYADSAKGRFTISRDESKNTVYLQMNSLRPEDTALYYCRALSRIWPYDYWGQGTLVTVSSA
notes: also called A0110056A10(E1D)-35GS-T0170056G05(L11V, D27Y, L34Y, M77T, K83R, V89L, F91Y, F95L, Y99W)-A
% Lysis, T cell mediated MOLM-13 cell killing, cynomolgus primary T cells, E:T 10:1 [1]: 32% | EC50 (M), T cell mediated MOLM-13 cell killing, cynomolgus primary T cells, E:T 10:1 [1]: 1.2e-10 M | Kd [2]: 200 nM | % lysis, MOLM-13, Cynomolgus T cell mediated killing [3]: 33% | EC50 (M), MOLM-13, Cynomolgus T cell mediated killing [3]: 2.1e-10 M | % lysis, MOLM-13, Human T cell mediated killing [4]: 22% | EC50 (M), MOLM-13, Human T cell mediated killing [4]: 2.5e-10 M | % lysis, KG-1a, Cynomolgus T cell mediated killing [5]: 41% | EC50 (M), KG-1a, Cynomolgus T cell mediated killing [5]: 2.7e-10 M | % lysis, KG-1a, Human T cell mediated killing [6]: 49% | EC50 (M), KG-1a, Human T cell mediated killing [6]: 4.4e-10 M | IC50 (M), xCELLigence CHO Flp-In huCD123 cell killing, Cynomolgus T cell mediated killing [7]: 1.9e-11 M | IC50 (M), xCELLigence CHO Flp-In huCD123 cell killing, Human T cell mediated killing [8]: 1.1e-11 M | EC50 (M), T cell mediated MOLM-13 cell killing, human primary T cells, E:T 10:1 [9]: 1.4e-10 M
